Data as given in patent publication US20170044230A1 (USTAV ORGANICKE CHEMIE A BIOCHEMIE AV CR, V.V.I., priority 2014, published 2017).
Non-standard residues stand in square brackets, D forms with d. Residues, ends and D or L forms follow the SMILES beside them. No end group written: not given here. *: point of attachment. 1Nal = N[C@@H](Cc1cccc2ccccc12)C(=O)O; Palmitoyl = CCCCCCCCCCCCCCCC(=O)*; Myristoyl = CCCCCCCCCCCCCC(=O)*; Decanoyl = CCCCCCCCCC(=O)*; Octanoyl = CCCCCCCC(=O)*; Dap = NC[C@H](N)C(=O)O; Sar = CNCC(=O)O

B1: ghrelin analog no. 13, (Sar)S(Dpr-N-oct)(PheCl2)LSPEHQKAQQRKESKKPPAKLQPR (peptide)
peptide: XSXXLSPEHQKAQQRKESKKPPAKLQPR
modifications: not fully specified; sarcosine (Sar) at position 1; diaminopropionic acid N-octanoyl (Dpr-N-oct) at position 3; dichlorophenylalanine (PheCl2) at position 4
notes: Synthetic ghrelin analog
B2: ghrelin analog no. 3, (Sar)S(Dpr-N-dec)(1-Nal)LSPEHQKAQQRKESKKPPAKLQPR (peptide)
peptide: XSXXLSPEHQKAQQRKESKKPPAKLQPR
modifications: sarcosine (Sar) at position 1; diaminopropionic acid N-decanoyl (Dpr-N-dec) at position 3; 1-naphtylalanine (1-Nal) at position 4
notes: Synthetic ghrelin analog
B3: ghrelin analog no. 4, (Sar)S(Dpr-N-myr)(1-Nal)LSPEHQKAQQRKESKKPPAKLQPR (peptide)
peptide: XSXXLSPEHQKAQQRKESKKPPAKLQPR
modifications: sarcosine (Sar) at position 1; diaminopropionic acid N-myristoyl (Dpr-N-myr) at position 3; 1-naphtylalanine (1-Nal) at position 4
notes: Synthetic ghrelin analog
B4: ghrelin analog no. 2, (Sar)S(Dpr-N-myr)FLSPEHQKAQQRKESKKPPAKLQPR (peptide)
peptide: XSXFLSPEHQKAQQRKESKKPPAKLQPR
modifications: sarcosine (Sar) at position 1; diaminopropionic acid N-myristoyl (Dpr-N-myr) at position 3
notes: Synthetic ghrelin analog; also called analog 2
B5: ghrelin analog no. 9, (Sar)S(Dpr-N-oct)(Nal)LSPEHQKAQQRKESKKPPAK(N-palm)LQPR (peptide)
peptide: XSXXLSPEHQKAQQRKESKKPPAKLQPR
modifications: not fully specified; sarcosine (Sar) at position 1; diaminopropionic acid N-octanoyl (Dpr-N-oct) at position 3; naphtylalanine (Nal) at position 4; Lys 24 N-palmitoyl (K(N-palm))
notes: Synthetic ghrelin analog
B6: ghrelin analog no. 14, (Sar)S(Dpr-N-myr)(PheCl2)LSPEHQKAQQRKESKKPPAKLQPR (peptide)
peptide: XSXXLSPEHQKAQQRKESKKPPAKLQPR
modifications: not fully specified; sarcosine (Sar) at position 1; diaminopropionic acid N-myristoyl (Dpr-N-myr) at position 3; dichlorophenylalanine (PheCl2) at position 4
notes: Synthetic ghrelin analog; also called analog 14
B7: ghrelin analog no. 12, (Sar)S(Dpr-N-9-decen)FLSPEHQKAQQRKESKKPPAKLQPR (peptide)
peptide: XSXFLSPEHQKAQQRKESKKPPAKLQPR
modifications: sarcosine (Sar) at position 1; diaminopropionic acid N-9-decenoyl (Dpr-N-9-decen) at position 3
notes: Synthetic ghrelin analog
B8: ghrelin analog no. 8, (Sar)S(Dpr-N-oct)(Cha)LSPEHQKAQQRKESKKPPAK(N-palm)LQPR (peptide)
peptide: XSXXLSPEHQKAQQRKESKKPPAKLQPR
modifications: sarcosine (Sar) at position 1; diaminopropionic acid N-octanoyl (Dpr-N-oct) at position 3; cyclohexylalanine (Cha) at position 4; Lys 24 N-palmitoyl (K(N-palm))
notes: Synthetic ghrelin analog
B9: ghrelin analog no. 6, (Sar)S(Dpr-N-myr)(Cha)LSPEHQKAQQRKESKKPPAKLQPR (peptide)
peptide: XSXXLSPEHQKAQQRKESKKPPAKLQPR
modifications: sarcosine (Sar) at position 1; diaminopropionic acid N-myristoyl (Dpr-N-myr) at position 3; cyclohexylalanine (Cha) at position 4
notes: Synthetic ghrelin analog
B10: ghrelin analog no. 1, (Sar)S(Dpr-N-dec)FLSPEHQKAQQRKESKKPPAKLQPR (peptide)
peptide: XSXFLSPEHQKAQQRKESKKPPAKLQPR
modifications: sarcosine (Sar) at position 1; diaminopropionic acid N-decanoyl (Dpr-N-dec) at position 3
notes: Synthetic ghrelin analog
B11: ghrelin analog no. 11, (Sar)S(Dpr-N-10-undecyn)FLSPEHQKAQQRKESKKPPAKLQPR (peptide)
peptide: XSXFLSPEHQKAQQRKESKKPPAKLQPR
modifications: sarcosine (Sar) at position 1; diaminopropionic acid N-10-undecynoyl (Dpr-N-10-undecyn) at position 3
notes: Synthetic ghrelin analog
B12: ghrelin analog no. 10, (Sar)S(Dpr-N-oct)(tBu)LSPEHQKAQQRKESKKPPAKLQPR (peptide)
peptide: XSXXLSPEHQKAQQRKESKKPPAKLQPR
modifications: sarcosine (Sar) at position 1; diaminopropionic acid N-octanoyl (Dpr-N-oct) at position 3; tertbutylalanine (tBu) at position 4
notes: Synthetic ghrelin analog
B13: ghrelin analog no. 5, (Sar)S(Dpr-N-dec)(Cha)LSPEHQKAQQRKESKKPPAKLQPR (peptide)
peptide: XSXXLSPEHQKAQQRKESKKPPAKLQPR
modifications: sarcosine (Sar) at position 1; diaminopropionic acid N-decanoyl (Dpr-N-dec) at position 3; cyclohexylalanine (Cha) at position 4
notes: Synthetic ghrelin analog
B14: ghrelin analog no. 7, (Sar)S(Dpr-N-oct)FLSPEHQKAQQRKESKKPPAK(N-palm)LQPR (peptide)
peptide: XSXFLSPEHQKAQQRKESKKPPAKLQPR
modifications: sarcosine (Sar) at position 1; diaminopropionic acid N-octanoyl (Dpr-N-oct) at position 3; Lys 24 N-palmitoyl (K(N-palm))
notes: Synthetic ghrelin analog

Columns and labels:
[1] = target: T1, human GHS-R1a receptor (Homo sapiens, UniProt Q92847); experiment: Competitive binding studies (displacement of 125I-ghrelin); details: relative to ghrelin = 100
T1 construct: purchased Multispan, Hayward, Calif., USA; host or cells: HEK293T cells, isolated plasma membranes
T1 sequence (Q92847 whole entry): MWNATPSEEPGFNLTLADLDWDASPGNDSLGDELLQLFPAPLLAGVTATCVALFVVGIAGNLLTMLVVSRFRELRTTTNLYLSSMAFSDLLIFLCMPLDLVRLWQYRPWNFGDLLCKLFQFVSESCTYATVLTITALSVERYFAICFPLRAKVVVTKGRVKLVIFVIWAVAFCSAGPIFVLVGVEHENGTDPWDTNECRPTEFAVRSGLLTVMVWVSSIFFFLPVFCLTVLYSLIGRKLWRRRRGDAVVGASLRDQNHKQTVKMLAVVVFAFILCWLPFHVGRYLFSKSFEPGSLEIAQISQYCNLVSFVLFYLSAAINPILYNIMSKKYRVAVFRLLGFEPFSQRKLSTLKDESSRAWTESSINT
Procedure: Isolated plasma membranes from the HEK293T cells with transfected human GHS-R1a receptor (Multispan, Hayward, Calif., USA) were used. […] Experiments were carried out in duplicates at least three times. Competitive binding curves were plotted using GraphPad Prism Software (San Diego, Calif., USA) while comparing the best fit for single binding sites models.

[2] = tested on: fed C57BL/6 male mice; experiment: Effect of SC administered ghrelin analogs on food intake; format: in vivo; details: for maximal effect at 5 mg/kg on food intake: SC 5 mg/kg, evaluated 480 min after administration
Procedure: All of the experiments followed the ethical guidelines for animal experiments and Czech Republic law 246/1992 and were approved by the committee for experiments with laboratory animals of the Academy of Sciences of the Czech Republic. Male C57BL/6 mice (Charles River, Germany) were housed at a temperature 22±2° C. under a daily cycle of 12/12 h light/dark (light from 6:00) with free access to water and a standard chow diet St-1 which contained […] of calories from protein, fat and carbohydrate, respectively, and its energy content was 3.4 kcal/g (Mlýn Kocanda, Praha, Czech Republic). Mice were placed into separate cages for one week before experiment, they had free access to water and food pellets. Closely before the experiment, the food pellets were removed from the cages. […] 15 min after the injection, mice were given preweighed food pellets. Food intake was monitored for 8-10 hours at 30-min intervals. Mice had free access to water during the experiment. Experiments were performed at least twice for each tested compound, each experimental group had at least 5 mice.
Data from food intake experiments were analyzed by one-way ANOVA followed by Dunnett's post-hoc test using GraphPad Prism Software (San Diego, Calif., USA), P<0.05 was considered statistically significant. ED50 values were calculated using GraphPad Prism Software as the dose of the tested compound required to elicit half-maximal effect at 250 min after administration of the corresponding compound.
Food intake was monitored for […] after administration of the compounds. ED50 values were determined 250 min after administration. Maximal effect on food intake was evaluated […] after administration of the compounds at a dose of 5 mg/kg of body weight. NT—not tested.

[3] = target: T2, human GHS-R1a receptor (growth hormone secretagogue receptor 1a) (human, UniProt Q92847 1-366); experiment: competitive displacement of 125I-ghrelin, membranes of HEK293T cells with transfected human GHS-R1a
T2 construct: whole, on cells; Functional assays: HEK-293T cells transiently transfected with human GHS-R1a; also called ghrelin receptor
T2 sequence (Q92847 whole entry): as above
Procedure: Competitive binding studies were performed according to the principles of Motulsky and Neubig (Motulsky & Neubig, 2002). Isolated plasma membranes from the HEK293T cells with transfected human GHS-R1a receptor (Multispan, Hayward, Calif., USA) were used. […] The binding reaction was stopped by the addition of ice-cold washing buffer (20 mM Tris pH 7.4, 10 mM MgCl₂, 2.5 mM EDTA, 0.015% Triton X-100) followed by rapid filtration over GF/C filters (Whatman, Clifton, N.J., USA) presoaked with 0.5% PEI in binding buffer using a Brandel cell harvester (Brandel Inc., Gaithersburg, Md., USA). Bound radioactivity was determined by gamma counting (Wizard 1470 Automatic Gamma Counter; PerkinElmer Life and Analytical Sciences, Waltham, Mass.).

[4] = target: T2, human GHS-R1a receptor (growth hormone …); experiment: cell-based or functional assay

Molecule	% of ghrelin binding [1] [%]	maximal effect at 5 mg/kg on food intake [2]	ED50 (250 min after injection), effect on food intake ([2]; SC, fed mice, 250 min after injection) [mg/kg]	% of ghrelin binding [3] [%]	Ki [3] [nM]	Ca^2+ - EC50 [nM] (intracellular calcium mobilization, Fluo-4AM) [4]	IP1 - EC50 [nM] (inositol phosphate accumulation, IP-One HTRF) [4]
CCCCCCCCCCCCCCCC(=O)NCCCC[C@H](NC(=O)[C@H](C)NC(=O)[C@@H]1CCCN1C(=O)[C@@H]1CCCN1C(=O)[C@H](CCCCN)NC(=O)[C@H](CCCCN)NC(=O)[C@H](CO)NC(=O)[C@H](CCC(=O)O)NC(=O)[C@H](CCCCN)NC(=O)[C@H](CCCNC(=N)N)NC(=O)[C@H](CCC(N)=O)NC(=O)[C@H](CCC(N)=O)NC(=O)[C@H](C)NC(=O)[C@H](CCCCN)NC(=O)[C@H](CCC(N)=O)NC(=O)[C@H](Cc1c[nH]cn1)NC(=O)[C@H](CCC(=O)O)NC(=O)[C@@H]1CCCN1C(=O)[C@H](CO)NC(=O)[C@H](CC(C)C)NC(=O)[C@H](Cc1cccc2ccccc12)NC(=O)[C@H](CNC(=O)CCCCCCC)NC(=O)[C@H](CO)NC(=O)CNC)C(=O)N[C@@H](CC(C)C)C(=O)N[C@@H](CCC(N)=O)C(=O)N1CCC[C@H]1C(=O)N[C@@H](CCCNC(=N)N)C(=O)O [Analog 9] (H-[Sar]S[Dap](Octanoyl)[1Nal]LSPEHQKAQQRKESKKPPAK(Palmitoyl)LQPR-OH; N-terminus and C-terminus assumed)	5	171.1 % of Dpr^3ghr	–	–	–	–	–
CCCCCCCC(=O)NC[C@H](NC(=O)[C@H](CO)NC(=O)CN)C(=O)N[C@@H](Cc1ccccc1)C(=O)N[C@@H](CC(C)C)C(=O)N[C@@H](CO)C(=O)N1CCC[C@H]1C(=O)N[C@@H](CCC(=O)O)C(=O)N[C@@H](Cc1c[nH]cn1)C(=O)N[C@@H](CCC(N)=O)C(=O)N[C@@H](CCCCN)C(=O)N[C@@H](C)C(=O)N[C@@H](CCC(N)=O)C(=O)N[C@@H](CCC(N)=O)C(=O)N[C@@H](CCCNC(=N)N)C(=O)N[C@@H](CCCCN)C(=O)N[C@@H](CCC(=O)O)C(=O)N[C@@H](CO)C(=O)N[C@@H](CCCCN)C(=O)N[C@@H](CCCCN)C(=O)N1CCC[C@H]1C(=O)N1CCC[C@H]1C(=O)N[C@@H](C)C(=O)N[C@@H](CCCCN)C(=O)N[C@@H](CC(C)C)C(=O)N[C@@H](CCC(N)=O)C(=O)N1CCC[C@H]1C(=O)N[C@@H](CCCNC(=N)N)C(=O)O [Dpr^3ghrelin, reference compound]	169	100 % of Dpr^3ghr	0.82	–	–	–	–
B1	–	–	–	47	2.45	–	–
B2	–	–	–	176	0.65	18.6	2.08
B3	–	–	–	57	2.01	10.9	9.75
[Sar]S[Dap](Decanoyl)FLSPEHQKAQQRKES [ghrelin analog no. 17, (Sar)S(Dpr-N-dec)FLSPEHQKAQQRKES]	–	–	–	30	3.71	–	–
[Sar]S[Dap](Myristoyl)FLSPEHQKAQQRK(Palmitoyl)ES [ghrelin analog no. 16, (Sar)S(Dpr-N-myr)FLSPEHQKAQQRK(N-palm)ES]	–	–	–	2	51	–	–
B4	–	–	–	54	2.1	36.6	7.1
B5	–	–	–	5	23.3	–	–
B6	–	–	–	7	16.8	–	–
B7	–	–	–	76	1.51	–	–
[Sar]S[Dap](Decanoyl)FLSPEHQKAQQRK(Palmitoyl)ES [ghrelin analog no. 15, (Sar)S(Dpr-N-dec)FLSPEHQKAQQRK(N-palm)ES]	–	–	–	19	5.99	–	–
B8	–	–	–	6	20.8	–	–
B9	–	–	–	18	6.41	11.4	3.08
B10	–	–	–	183	0.63	9.66	12.6
B11	–	–	–	139	0.83	–	–
GSS(Octanoyl)FLSPEHQKAQQRKESKKPPAKLQPR [Ghrelin]	–	–	–	100	–	–	–
[Sar]S[Dap](Myristoyl)FLSPEHQKAQQRKES [ghrelin analog no. 18, (Sar)S(Dpr-N-myr)FLSPEHQKAQQRKES]	–	–	–	34	3.38	–	–
B12	–	–	–	24	4.71	–	–
B13	–	–	–	110	1.04	10.6	3.28
GSXFLSPEHQKAQQRKESKKPPAKLQPR (diaminopropionic acid (Dpr) bearing octanoyl at position 3, Synthetic ghrelin analog) [Dpr^3ghrelin]	–	–	–	169	0.68	–	16.3
B14	–	–	–	19	6.09	–	–
